Reference: the supplement of paper PMC9170038

System: MS2 coat protein
Assay: apparent KD of MS2 coat protein; designed switch direction (-1 OFF switch, 1 ON switch): -1; higher = weaker reporter binding
How it was run: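 For each design, the apparent KD is the median over clusters of curves fitted to normalised cluster fluorescence. Clusters held RNA switches with common flanks, transcribed on Illumina chips by stalled E. coli RNA polymerase. These were titrated with SNAP-549-labelled MS2 coat protein, doubling from 0.7 or 1.5 nM to 3 µM, without input, with 200 uM small-molecule ligand, or with an oligonucleotide input.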

[1] = Eterna round: R95, input ligand: FMN 200 uM
[2] = Eterna round: R95, input ligand: microRNA oligo, concentration not stated
[3] = Eterna round: R95, input ligand: none
[4] = input ligand: microRNA oligo, concentration not stated

Sequence	apparent KD of MS2 coat protein [1] [nM]	apparent KD of MS2 coat protein [2] [nM]	apparent KD of MS2 coat protein [3] [nM]	apparent KD of MS2 coat protein (input ligand: FMN 200 uM) [nM]	apparent KD of MS2 coat protein [4] [nM]	apparent KD of MS2 coat protein (input ligand: none) [nM]
AGAUAGUUAGGAUAUACAUGAGGAUCACCCAUGUAGAAAAGUGGCUAAUGAGACUCCGGUAGAAGGAACAAAAU [Isanqurama] (puzzle: Exclusion 3)	41.7	20	27.7			
AGAUCUAGGACAGGAUAUACGGAUGUCUUCAUCGAAGAUGAAGACAUCACAUGAGGAUCACCCAUGUAGAAGGGUCCUAGAUCA [Omei Exc(NG) 2A] (Eterna round: R96, puzzle: Exclusion NG 2)				12.3	10.9	14.3
AGAUGACAUGAGGAUCACCCAUGUUAGGAUAUUUAAGCCUGUACGCGCGUACUAGACGAGAGAAGGGACAUGGC [Eternabot (Original) Solution 39] (Eterna round: R97, puzzle: Exclusion 1)				33.9		30.7
AGAUGCUCAAGUCGACAUGAGGAUCACCCAUGUACAGUUAAUGAGGAUAUCCGAGAUAAAUAAUAGGAGAAGGUAUGAUCAUGA [Ex NG3 #5] (Eterna round: R96, puzzle: Exclusion NG 3)				86.7	175	59.5
AGAUGCUCGAGUCGACAUGAGGAUCACCCAUGUACAGUUAGUGAGGAUAUCGGAGACACAUAGUAUGAGAAGGCGCGAACGUGA [Ex NG3 #15] (Eterna round: R96, puzzle: Exclusion NG 3)				224	52.1	97.8
AGAUGCUCGAGUCGACAUGAGGAUCACCCAUGUACAGUUAGUGAGGAUAUCUGAGACACAUAGUAGGAGAAGGCGCGAACGUGA [Ex NG3 #14] (Eterna round: R96, puzzle: Exclusion NG 3)					58.6	
AGAUGGCGAGGAUAUACAUGAGGAUCACCCAUGUGAGAAGAAGAAGUGAGGAAGAAAAGUAGAAGGCGCUGUCA [Mat - Exclusion 3 - Mod of Salish D20] (puzzle: Exclusion 3)	145	50.3	44.9			
AGAUGUAGAUACCGAUCCUACAUGAGGAUCACCCAUGUAGCUAGACGUGCACGCGUAGCUCGUCAGACUACCAGUAG [salish99_TOv1_r3_086] (puzzle: Sensor v3, turn-off variant 1)	372	336	363			
AGCAGACGAGGAUAUGAUAAUUAAUACAUGAGGAUCACCCAUGUAAUACUGAUCCAUGGAUCAGAAGGCGUCUGCU [E5/4-A1] (Eterna round: R97, puzzle: Exclusion 5)				27.1		17.6
AGCAUGCAGCAGGAUAUCGAUCCGCAGUAUGAUCGAGAAGGGCUGACAUGAGGAUCACCCAUGUGCGUCCUAGG [jl-ex6-4.42 ViennaUCT mod] (Eterna round: R97, puzzle: Exclusion 6)				295		66.3
AGCAUGCAGUAGGAUAUCGAUCCACAAUAUGAACGAGAAGGGCUGACAUGAGGAUCACCCAUGUGCGUCCGAAG [Ersoontiri] (Eterna round: R97, puzzle: Exclusion 6)				21		16.8
AGCAUGCUAGGAUAUACGGGACAUUAGGGUUCGUUGUAUGGACAUGAGGAUCACCCAUGUAGAAGGAGCGUGCA [Mat - Exclusion 2 - Mod of Hyphema - D94] (puzzle: Exclusion 2)		23.5				
AGCAUGUAAGGAUAUGCAACACAGCUUUCAAUCGCUGUGCCGCAGAAGGUACAUGAGGAUCACCCAUGUGCUCC [Anesonza] (puzzle: Exclusion 4)		75.6				
AGCAUGUGAGGAUAUGCGAAGGGAAGGAGAGGGAAAGAGAAGCAGAAGGCACAUGAGGAUCACCCAUGUAAGGG [AK-MS2ROC-r4-exclusion4-8.1] (Eterna round: R97, puzzle: Exclusion 4)				63.9		969
AGCCACAGAGGAUAUACAUACAUCCAGUAGUAGAGAAUACUACAUGAGGAUCACCCAUGUAGAAGGCUGUGGCA [Omei Ex2 BD B14] (Eterna round: R97, puzzle: Exclusion 2)				316		438
AGCCCUGCAGGAUAUGCCCGGGAUAACAUGAGGAUCACCCAUGUGACCGAUUGUUAUCCUGCAGAAGGGCUAGGGA [JL-EX5-4.11 ViennaUCT mod] (Eterna round: R97, puzzle: Exclusion 5)				126		49
AGCCGGUCGUGAGGAUAUUACAUGAGGAUCACCCAUGUCGACGGGCUACGGGCGGUCGGCUCGUGUGAGAAGGCGCGCCCGGAA [Tibibiza] (Eterna round: R96, puzzle: Exclusion NG 2)				17.3	8.33	17.6
AGCCUGCAAGUAAGGAUAUGAAGUUAAAAGAACGGUCAGAAGGUACUUGAGGAUCACCCAAGUACGGGAGCGUG [Teuscema] (Eterna round: R97, puzzle: Brourd's mod of Exclusion 4)				41		16.3
AGCGAAGAGACAGGAUAUGAGAAUAGAUAGAACUCAGAAGGGUCACAUGAGGAUCACCCAUGUAAAGUCUUGAGGCUGCGUGGU [Prohibition 9 - Jieux - Exclusion NG 1] (Eterna round: R96, puzzle: Exclusion NG 1)				141	50.7	71.9
AGCGAAUAGACAGGAUAUGAGAAUAGAUAGAGCUCAGAAGGGUCACAUGAGGAUCACCCAUGUGAAGUCUUGAGGCUGCGUGGU [Prohibition 18 - Jieux - Exclusion NG 1] (Eterna round: R96, puzzle: Exclusion NG 1)				13.1	13.4	16.1
AGCGCAUGAGGAUAUACAUGAGGAUCACCCAUGUUCCAGUGAGCACUAGUGAGAGUCAGUAGAAGGUAUAGGGC [Cecete] (Eterna round: R97, puzzle: Exclusion 3)				151		172
AGCGUCUGAGGAUAUGCAUCUUAUCAGUCCGUGCGUAAGCGACAUGAGGAUCACCCAUGUAGAAGGUAGAUGCG [Eternabot (L1) Solution 10] (Eterna round: R97, puzzle: Exclusion 2)				19.6		17.6
AGCGUGUUAGGAUAUACACGACACUGGGUAGCGGGUGGAGGGUAGAAGGGACAUGAGGAUCACCCAUGUUCGGG [Ortere] (Eterna round: R97, puzzle: Exclusion 4)				28.5		35
AGCUAGUCAGGAUAUACGUAAAUGUCGAAAGACGUAUUGGGACAUGAGGAUCACCCAUGUAGAAGGGACUAGCA [Mod of Janderson's WEB Mod v.1] (Eterna round: R96, puzzle: Exclusion 2)				168	19.7	24.8
AGCUGUGGCCGAGGAUAUCACGAACCAUGGAAAACCAUGGAAAUUCUACAUGAGGAUCACCCAUGUGAGAAGGCGGUCUCAGCA [Eli eng2 - 023] (Eterna round: R96, puzzle: Exclusion NG 2)					12.5	
AGCUGUGGCCGAGGAUAUCCACAUGAGGAUCACCCAUGUCGAUACGCCGUUAAAGGCGAUAUAAGGGAGAAGGCGGUCUCAGCA [Eli eng2 - 052] (Eterna round: R96, puzzle: Exclusion NG 2)				7.35	6.69	10.2
AGCUGUGGCCGAGGAUAUCUAACAAUCCCAACCGAAAUAUAAUCGGACAUGAGGAUCACCCAUGUAGAGAAGGCGGUCUCAGCA [Eli eng2 - 073] (Eterna round: R96, puzzle: Exclusion NG 2)					137	
AGCUGUGGCCGAGGAUAUCUGAAAACUCAAACCGAAAUAUAAUCGGACAUGAGGAUCACCCAUGUAGAGAAGGCGGUCUCAGCA [Eli eng2 - 062] (Eterna round: R96, puzzle: Exclusion NG 2)					45.7	
AGCUGUGGCCGAGGAUAUUCAGCCUUAAAUACCGACGUAUAGUCGGACAUGAGGAUCACCCAUGUGGAGAAGGCGGUCUCAGCA [Eli eng2 - 046] (Eterna round: R96, puzzle: Exclusion NG 2)				76.4	34.5	48.4
AGGAUACGAGGAUAUACGCGGAGACCUCAGGGUCUACAAACACAUGAGGAUCACCCAUGUAGAAGGCGUACCAG [Eternabot (Original) Solution 11] (Eterna round: R97, puzzle: Exclusion 2)				394		42
